Data: paper PMC4650713, “Crystal structure of Bax bound to the BH3 peptide of Bim identifies important contacts for interaction” (Cell Death & Disease, 2015)
One block for each substance: values may come before it.

Tests used:
BaxΔC21 [1] = molecular target: BaxΔC21 (UniProt Q07812)
BaxΔC21 [2] = molecular target: BaxΔC21 (UniProt Q07812); experiment: SPR; competition in solution: BaxΔC21 at 25 nM incubated with increasing concentrations of BH3 peptide in 10 mM HEPES, 150 mM NaCl, 3.4 mM EDTA, 0.005% Tween-20, pH 7.4 with 0.5% octylglucoside, injected onto a CM5 chip with immobilised BimBH3; Bim4E channel subtracted; IC50

Chain of BaxΔC21 (Q07812 1-171 C62S/C126S): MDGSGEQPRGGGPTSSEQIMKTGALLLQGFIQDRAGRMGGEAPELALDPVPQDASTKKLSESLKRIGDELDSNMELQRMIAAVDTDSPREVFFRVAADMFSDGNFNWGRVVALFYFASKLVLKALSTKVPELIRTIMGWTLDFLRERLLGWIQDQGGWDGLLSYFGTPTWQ

core/latch dimer formation of BaxΔC21 triggered by the peptide with CHAPS (gel filtration) (BaxΔC21 [1]): > 50% | IC50 (BaxΔC21 [2]): 2.4 µM | fold weaker binding than BimBH3 (BaxΔC21 [2]): 40 fold
Substance: BimBH3 E145K (peptide)

fold loss of affinity against BimBH3 (BaxΔC21 [2]): 3 fold
Substance: BimBH3 P144A/E145A (peptide)

fold tighter binding than BidBH3 (BaxΔC21 [2]): 5 fold
Substance: BimBH3 peptide
